Our source for the stoichiometry N (Fabs per spike) values is publication PMC8528075.

The assay deals with SARS-CoV-2 S2P spike (prefusion-stabilized trimer) (SARS-CoV-2 Wuhan-Hu-1). In words: cryo-EM structure.

Consider 2–36 Fab, for which the stoichiometry N (Fabs per spike) was 3.
